# Experimental data reported in US20240077502.
# What was measured:
# Abz-LMVGGK(Dnp)-CONH2 = biological target: T1, Abz-LMVGGK(Dnp)-CONH2
# T1 chain: LMVGGK
# Abz-LPESGK(Dnp)-CONH2 = biological target: T2, Abz-LPESGK(Dnp)-CONH2
# T2 chain: LPESGK
# Btn-LMVGG = biological target: T3, Btn-LMVGG
# T3 chain: GLMVGGV
# [1] = biological target: T4, LPESG substrate (flow cytometry panel)
# T4 chain: LPESG
# [2] = biological target: T5, LPPAG substrate (flow cytometry panel)
# T5 chain: LPPAG
# [3] = biological target: T6, endogenous fetuin A in human plasma, P02765
# T6 chain: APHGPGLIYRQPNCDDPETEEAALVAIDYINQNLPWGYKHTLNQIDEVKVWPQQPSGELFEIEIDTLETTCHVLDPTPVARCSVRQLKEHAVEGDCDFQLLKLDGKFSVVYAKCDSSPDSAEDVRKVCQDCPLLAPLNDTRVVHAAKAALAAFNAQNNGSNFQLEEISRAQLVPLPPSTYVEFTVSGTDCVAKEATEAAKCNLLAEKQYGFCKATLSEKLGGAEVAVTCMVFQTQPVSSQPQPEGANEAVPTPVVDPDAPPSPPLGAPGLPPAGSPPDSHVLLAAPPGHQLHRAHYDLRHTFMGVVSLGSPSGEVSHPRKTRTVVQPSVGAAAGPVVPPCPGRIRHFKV
# purified fetuin A = biological target: T7, purified fetuin A
# T7 sequence (P02765 19-300, species assumed, looked up): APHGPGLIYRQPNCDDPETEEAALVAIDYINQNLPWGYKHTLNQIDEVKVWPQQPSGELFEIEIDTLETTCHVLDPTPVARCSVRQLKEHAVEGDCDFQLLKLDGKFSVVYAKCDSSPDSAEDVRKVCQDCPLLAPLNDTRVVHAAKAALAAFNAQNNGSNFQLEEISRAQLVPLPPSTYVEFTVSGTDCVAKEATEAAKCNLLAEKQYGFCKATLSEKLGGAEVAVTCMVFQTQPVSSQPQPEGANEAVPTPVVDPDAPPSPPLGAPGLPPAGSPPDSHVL
# T7 sequence (P02765 341-367, species assumed, looked up): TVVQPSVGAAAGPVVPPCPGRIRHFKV
# Chain of Aβ40, P05067 (P05067 whole entry, looked up): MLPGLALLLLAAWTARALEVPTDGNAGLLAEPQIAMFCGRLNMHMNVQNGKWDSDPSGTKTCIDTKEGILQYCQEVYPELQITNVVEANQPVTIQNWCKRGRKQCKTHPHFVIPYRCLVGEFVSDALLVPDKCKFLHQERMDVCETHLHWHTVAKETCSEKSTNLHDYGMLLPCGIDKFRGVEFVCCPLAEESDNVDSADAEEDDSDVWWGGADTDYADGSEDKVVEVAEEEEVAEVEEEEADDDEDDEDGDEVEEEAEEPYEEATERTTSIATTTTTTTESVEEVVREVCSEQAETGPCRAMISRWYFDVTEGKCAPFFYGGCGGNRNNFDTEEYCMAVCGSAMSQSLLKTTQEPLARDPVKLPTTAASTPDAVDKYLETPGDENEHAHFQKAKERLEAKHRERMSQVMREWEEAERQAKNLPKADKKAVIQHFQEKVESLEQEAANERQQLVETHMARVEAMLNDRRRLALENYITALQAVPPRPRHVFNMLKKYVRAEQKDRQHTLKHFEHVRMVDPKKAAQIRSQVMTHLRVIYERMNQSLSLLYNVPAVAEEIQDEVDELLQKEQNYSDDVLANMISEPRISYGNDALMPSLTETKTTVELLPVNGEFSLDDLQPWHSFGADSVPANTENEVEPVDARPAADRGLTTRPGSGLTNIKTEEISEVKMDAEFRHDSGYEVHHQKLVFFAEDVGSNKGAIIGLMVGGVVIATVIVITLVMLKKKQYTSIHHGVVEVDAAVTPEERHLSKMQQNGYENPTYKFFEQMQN
# Chain of Aβ42, P05067 (P05067 whole entry, looked up): as above
# Chain of AβM1-42, P05067 (P05067 whole entry, looked up, tested part not stated): as the sequence (P05067 whole entry, looked up) above
# Chain of Aβ43, P05067 (P05067 whole entry, looked up): as above
# Chain of AβM1-40, P05067 (P05067 whole entry, looked up, tested part not stated): as the sequence (P05067 whole entry, looked up) above
protein,measurement,setting,value
SrtAβ (protein) MKKWTNRLMTIAGVVLILVAAYLFAKPHIDNYLHDKDKDEKIEQYDKNVKEQASKDKKQQAKPQIPKDKSKVAGYLEIPDADIKEPVYPGPATREQLDRGVCFVDEDESLDDQNISIIGHTALLRPHYQFTNLRAAKLDSIVYFTVGNETRRYKITSICNVRPTAVEVLDEHEGKDRQLTLATCDDYNYETGVWESSKIFVATEVR,KM,Abz-LMVGGK(Dnp)-CONH2,KM=128 µM (95% CI=87 to 198 µM)
same,kcat,Abz-LMVGGK(Dnp)-CONH2,kcat=0.018 s-1 (95% CI=0.015 to 0.023 s-1)
same,kinetic parameters (HPLC assay),Abz-LPESGK(Dnp)-CONH2,SrtAβ activity on LPESG [SEQ ID NO: 4] was too low to establish accurate kinetic parameters
same,biotinylated product formed in human plasma (streptavidin capture ELISA),"Aβ40, P05067",1.5 µM SrtAβ generating 2.3 µM of biotinylated product from 5 µM Aβ40 in two hours
same,lowest Aβ40 concentration at which labeling was observed in human plasma (m266 capture ELISA),"Aβ40, P05067",labeling of Aβ40 spiked into human plasma at concentrations as low as 5 nM was observed
same,modification by the sortase,"Aβ40, P05067","SrtAβ has been shown to modify Aβ40, Aβ42, and Aβ43"
same,yield of transpeptidation products with glycine nucleophiles (HPLC),"Aβ40, P05067",the expected transpeptidation products were observed in yields of 80-88%
same,conversion to transpeptidation product with 200 µM GGGRR (HPLC),"Aβ42, P05067",as opposed to 50% when reacted with 200 µM GGGRR
same,conversion to transpeptidation product with 1 mM GGGRR (HPLC),"Aβ42, P05067",64% of the Aβ42 was converted to the expected product when reacted with 1 mM GGGRR
same,modification by the sortase,"Aβ42, P05067","SrtAβ has been shown to modify Aβ40, Aβ42, and Aβ43"
same,modification by the sortase,"Aβ43, P05067","SrtAβ has been shown to modify Aβ40, Aβ42, and Aβ43"
same,conversion to transpeptidation product with GGGK(Btn) (HPLC),"AβM1-40, P05067",82% of the starting AβM1-40 was converted to the desired product
same,conversion to transpeptidation product with GGGRR (HPLC),"AβM1-42, P05067",64% of the starting AβM1-42 was converted to the desired product
same,change in substrate preference against 4S.6 (flow cytometry),Btn-LMVGG,"1,470-fold change in preference to favor LMVGG [SEQ ID NO: 3] over LPESG [SEQ ID NO: 4]"
same,"fold change of activity against 4S.6 (flow cytometry, yeast display)",Btn-LMVGG,28-fold increased activity on LMVGG
same,"substrate preference, LMVGG over LPESG (flow cytometry)",Btn-LMVGG,30-fold preference for LMVGG [SEQ ID NO: 3] over LPESG [SEQ ID NO: 4]
same,"fold change of activity against 4S.6 (flow cytometry, yeast display)",[1],53-fold reduced activity on LPESG
same,"fold change of activity against 4S.6 (flow cytometry, yeast display)",[2],11-fold reduced activity on LPPAG
same,"activity on fetuin A in human plasma (streptavidin pulldown, Coomassie)",[3],a sortase variant with greatly reduced activity on fetuin A relative to the starting sortase 4S.6 was generated
same,"labeling with GGGK(Btn) in human plasma, Western blot",[3],"4S.6, but not SrtAβ, labels fetuin A"
SrtAβ reversion mutant A182V (protein) MKKWTNRLMTIAGVVLILVAAYLFAKPHIDNYLHDKDKDEKIEQYDKNVKEQASKDKKQQAKPQIPKDKSKVAGYLEIPDADIKEPVYPGPATREQLDRGVCFVDEDESLDDQNISIIGHTALLRPHYQFTNLRAAKLDSIVYFTVGNETRRYKITSICNVRPTAVEVLDEHEGKDRQLTLVTCDDYNYETGVWESSKIFVATEVR,"reduction of activity against SrtAβ (flow cytometry, yeast display)",Btn-LMVGG,2 fold
SrtAβ reversion mutant C159R (protein) MKKWTNRLMTIAGVVLILVAAYLFAKPHIDNYLHDKDKDEKIEQYDKNVKEQASKDKKQQAKPQIPKDKSKVAGYLEIPDADIKEPVYPGPATREQLDRGVCFVDEDESLDDQNISIIGHTALLRPHYQFTNLRAAKLDSIVYFTVGNETRRYKITSIRNVRPTAVEVLDEHEGKDRQLTLATCDDYNYETGVWESSKIFVATEVR,"reduction of activity against SrtAβ (flow cytometry, yeast display)",Btn-LMVGG,2 fold
SrtAβ reversion mutant R177K (protein) MKKWTNRLMTIAGVVLILVAAYLFAKPHIDNYLHDKDKDEKIEQYDKNVKEQASKDKKQQAKPQIPKDKSKVAGYLEIPDADIKEPVYPGPATREQLDRGVCFVDEDESLDDQNISIIGHTALLRPHYQFTNLRAAKLDSIVYFTVGNETRRYKITSICNVRPTAVEVLDEHEGKDKQLTLATCDDYNYETGVWESSKIFVATEVR,"reduction of activity against SrtAβ (flow cytometry, yeast display)",Btn-LMVGG,2 fold
SrtAβ reversion mutant R134G (protein) MKKWTNRLMTIAGVVLILVAAYLFAKPHIDNYLHDKDKDEKIEQYDKNVKEQASKDKKQQAKPQIPKDKSKVAGYLEIPDADIKEPVYPGPATREQLDRGVCFVDEDESLDDQNISIIGHTALLRPHYQFTNLGAAKLDSIVYFTVGNETRRYKITSICNVRPTAVEVLDEHEGKDRQLTLATCDDYNYETGVWESSKIFVATEVR,"reduction of activity against SrtAβ (flow cytometry, yeast display)",Btn-LMVGG,2 fold
"minimal mutant (4S.6 with S118I, G134R, R159C, K177R, V182A, and R197S mutations) (protein) QAKPQIPKDKSKVAGYIEIPDADIKEPVYPGPATREQLDRGVSFVEENESLDDQNISIIGHTAIDRPNYQFTNLRAAKKGSMVYFKVGNETRKYKMTSICNVKPTAVEVLDEQKGKDRQLTLATCDDYNVETGVWETSKIFVATEVK",fold change of activity against 4S.6 (flow cytometry),Btn-LMVGG,4-fold improvement in LMVGG [SEQ ID NO: 3] activity relative to 4S.6
same,fold change of activity against SrtAβ (flow cytometry),Btn-LMVGG,23-fold lower activity than SrtAβ
round 7 consensus sequence (R7) reversion mutant Y94R (protein) QAKPQIPKDKSKVAGYIEIPDADIKEPVYPGPATREQLDRGVSFVEENESLDDQNISIIGHTALLRPNYQFTNLRAAKIGSMVYFKVGNETRKYKMTSIRNVKPTAVEVLDEQEGKDKQLTLATCDDYNFETGVWESSKIFVATEVK,"fold change of activity against the round 7 consensus sequence (flow cytometry, 100-1000 nM Btn-LMVGG)",Btn-LMVGG,Reversion mutant Y94R showed a 2.3-fold improvement on average across substrate concentrations compared to the round 7 consensus sequence
round 7 consensus sequence (R7) reversion mutant L123I (protein) QAKPQIPKDKSKVAGYIEIPDADIKEPVYPGPATYEQLDRGVSFVEENESLDDQNISIIGHTAILRPNYQFTNLRAAKIGSMVYFKVGNETRKYKMTSIRNVKPTAVEVLDEQEGKDKQLTLATCDDYNFETGVWESSKIFVATEVK,"fold change of activity against the round 7 consensus sequence (flow cytometry, 100-1000 nM Btn-LMVGG)",Btn-LMVGG,L123I (1.5-fold)
round 7 consensus sequence (R7) reversion mutant L124D (protein) QAKPQIPKDKSKVAGYIEIPDADIKEPVYPGPATYEQLDRGVSFVEENESLDDQNISIIGHTALDRPNYQFTNLRAAKIGSMVYFKVGNETRKYKMTSIRNVKPTAVEVLDEQEGKDKQLTLATCDDYNFETGVWESSKIFVATEVK,"fold change of activity against the round 7 consensus sequence (flow cytometry, 100-1000 nM Btn-LMVGG)",Btn-LMVGG,L124D (1.1-fold)
sortase 4S.6 (protein) QAKPQIPKDKSKVAGYIEIPDADIKEPVYPGPATREQLDRGVSFVEENESLDDQNISISGHTAIDRPNYQFTNLGAAKKGSMVYFKVGNETRKYKMTSIRNVKPTAVEVLDEQKGKDKQLTLVTCDDYNVETGVWETRKIFVATEVK,kinetic parameters,Abz-LMVGGK(Dnp)-CONH2,4S.6 activity on LMVGG [SEQ ID NO: 3] was not detectable
same,KM,Abz-LPESGK(Dnp)-CONH2,KM=610 µM (95% CI=90 to 5550 µM)
same,kcat,Abz-LPESGK(Dnp)-CONH2,kcat=0.36 s-1 (95% CI=0.22 to 0.96 s-1)
same,"substrate preference, LPESG over LMVGG (flow cytometry)",[1],49-fold preference for LPESG [SEQ ID NO: 4] over LMVGG [SEQ ID NO: 3]
same,"labeling with GGGK(Btn) in human plasma, Western blot",[3],"4S.6, but not SrtAβ, labels fetuin A"
SrtA 8.5-H3 (protein) MKKWTNRLMTIAGVVLILVAAYLFAKPHIDNYLHDKDKDEKIEQYDKNVKEQASKDKKQQARPQIPKDKSKVAGYIEIPDADIKEPVYPGPATREQLDRGVSFVEEDESLDDQNISIIGHTALLRPNYQFTNLRAAKIGSMVYFKVGNETRKYKMTSIRNVKPTAVEVLDEQEGKDRQLTLATCDDYNIETGVWESSKIFVATEVK,KM,Abz-LMVGGK(Dnp)-CONH2,KM=52 µM (95% CI=29 to 103 µM)
same,kcat,Abz-LMVGGK(Dnp)-CONH2,kcat=0.012 s-1 (95% CI=0.009 to 0.017 s-1)
same,percent of substrate converted to product (HPLC assay for SrtA activity),Abz-LMVGGK(Dnp)-CONH2,converting 10% of M substrate to product in two hours
same,"labeling with GGGK(Btn) in human plasma, Western blot",[3],Western blot of overnight reaction of SrtA 8.5-H3 (50 µM) and GGGK[SEQ ID NO: 6](Btn) (1 mM) in human plasma shows labeling of endogenous fetuin A
same,"labeling with GGGK(Btn), Western blot",purified fetuin A,Labeled fetuin A is detected by Western blot
